From the DeepSol protein solubility set

experiment: soluble on expression in E. coli; label from the status in PepcDB or PDB records

| Sequence | soluble on expression in E. coli |
| --- | --- |
| MALDNRHRLIVGKLAEAFGLPENVIEKTLTQDKQAVNSFFTPAGPPSLVFVYQVKEDKLKDGSVGPVDNKPTLHRIGPHERIHNKGVYFTRLNPKGINEKTLEADMGSGELSGGALENFKAIVSDLYLPIMQEQQQWGKMSTEYLEDFLSSTAKFGSMLTEAVATVSGGVELRMPDPRYIDQYGDLRPAGITQAAGDDDTLQEMEECLTEWCREAELLLNQTNKIKDGEEPGPDTELEYWRTRMSNFNSITEHLKTKECKLVLGICSHAKTKAYLRWRALDVQITDAANESKDNVKYLATLEKSMEPMYQGRVTDITESLPALMTNVRMMYTIARFYSTAEHMTRLFTKITNQLVRRCKEQIMENGKIWDQDKVTLIGNMKVSVELANVYRQQYRLAKETLAAQPKSKQFDFDEQAIFLKFDLFSKRLHKLIDMFTTIHQFSSLEQHTHIEGLDTMLKSLNNIIDDVKRKPYDLLDYSRNAFDRDFLEFNVQINDLELQLQGFVNASFEHITSTEHALSLLAQFQAIMQRETLQQDLENKYMVIFQNYAKDLDAVQKLYEKNKYEPPVPRNAPPVAGNIMWARQLLRRIEAPMQRFAQNKNLLAAKESKKIIKTYNKVAKALIEFETLWHQAWIKSIEQCKAGLAAPLLVQHPDTGKILVNFDKEIMQLVREAKYMQRFNIAVPESAQMVLLQEEKFKFYHNQLTHLVREYEHVLGRVAPTIKPLLRPHLDDMERKIAPGFAVLTWTSLNIDGYLHRFKQGLARLEELVRKVVDLTENRVDSNLGAISSTLLVELPTDRSFTYEEFVSTQNRFQKKQAELLAIRNEEVRRAIEDLLTLVRNYPRENTEDVLDEKEVSLFVRHYSKNMYNAIMQCTLNSLQAMKRRLGSKTTTGIFFMERPFFDVDVELKVPSVCMNPTLEEIQAAINQCAKKVLTISKQLPAWGMDNVATYHEMIAGDKEVVKAVLRLTGSVEGIKTQVGEYIRTFDKYDFLWKEDLQAAYDHFMRSNPTLEAFEAELKKYMAIETEVTMINGVNNIGALSLETMPLKNSLKAEAVSWKTQFAQNLHKQCSDDLKAFDNYIRDTNSKFHRKIEDLEDVRNVMAVLKEVREKESEIDNLIGPIEEMYGLLMRYEVRVPKEETTMVSDLRYGWKKLKKVATEVSDNLTRLQVGFKRELIKEVKTFVVDAQMFRKDWEANGPMVPGLDPQEAVDRLRKFQQMFEVRKRKWENYSSGEELFGLPVTQYPELEQTEKEIQMLDRLYSLYVAVITTIKGYGDYFWVDVVEKIDEMGEQVQQYQNQSKKLPKALRDWPAYNACRKTIDDFLEMLPLFQALTHKSMRERHWKEVMRVTGHELNLAEDHFKLQHLLDCNVLRYREDIEDLTGAAVKEEIIEVKLNQLKADWATANLAFAEYKNRGPVILKPSDTSELMEKLEESQMTLGSMATNRYSAPFRDEVQAWSIKLSTVSEIIEQWLMVQSMWQYMEAVF | not soluble |
| MKEIKVIIAGPRGRMGHEAVLLMERTEHFNLVAAVDYKHGGEKISDLPGMPALHAPIYADLHTCLDEVEADVLLDLTTPEVGKQHVTLAVERGLRSVIGTTGFTEEELTRLTENAKEKAVGTIIAPNFAIGAVLMMKFSQMAAKYFQDVEVIELHHDQKLDAPSGTAVKTVELIRQNRESKQQGHPNEVEQLAGARGANVDGIHIHSVRLPGLIAHQEVMFGGDGQMLTVRHDSFNRASFMSGVKLSIETVMNLDHLVYGLENIID | not soluble |
| MSLKKISFIINGQVEIFPESDDLVQSINFGDNSVYLPILNNSHVKNIIDYNENNKLRLHNIVNFLYTVGQRWKNEEYSRRRTYIRDLKKYMGYSEAMAKLEANWISMILCSKGGLYDVVENELGSRHIMDEWLPQDESYIKAFPKGKSIHLLAGNVPLSGIMSILRAILTKNQCIIKTSSTDPFTANALALSFIDVDPNHPITRSLSVVYWPHQGDTSLAKEIMQHMDVIVAWGGEDAINWAVEHAPPYADVIKFGSKKSFCIIDNPVDLTSAATGAAHDICFYDQRACFSAQNIYYMGNQYEEFKLALIEKLNLYAHILPNAKKDFDEKAAYSLVQKESLFAGLKVEVDVHQRWMIIESNAGVEFNQPLGRCVYLHHVDNIEQVLPYVQKNKTQTISIFPWESAFKYRDALALRGAERIVEAGMNNIFRVGGSHDGMRPLQRLVTYISHERPSHYTAKDVAVEIEQTREGHHHHHH | soluble |
| MLARLVLGTSGRAALGSVEPALGGLKSIWRCSQAFCSTPKGVTYRELKSLLNSKDIMLIDVRNTLEILEQGKIPGSINIPLDEVGEALQMNPVDFKEKYCQVKPSKSDRLVFSCLAGVRSKKAMDTAISLGFNSAQHYAGGWKEWVTYEISEEKQES | soluble |
